Columns and labels:
[1] = target: Human ABCG2 (breast cancer resistance protein), wild type, N-terminal Flag tag, reconstituted in nanodiscs (human, UniProt Q9UNQ0); test: cryo-EM structure
[2] = target: T1, Human ABCG2 (breast cancer resistance protein), wild type, N-terminal Flag tag, reconstituted in nanodiscs (human), Q9UNQ0; test: cryo-EM structure; conditions: remark: other sources report otherwise
T1 chain: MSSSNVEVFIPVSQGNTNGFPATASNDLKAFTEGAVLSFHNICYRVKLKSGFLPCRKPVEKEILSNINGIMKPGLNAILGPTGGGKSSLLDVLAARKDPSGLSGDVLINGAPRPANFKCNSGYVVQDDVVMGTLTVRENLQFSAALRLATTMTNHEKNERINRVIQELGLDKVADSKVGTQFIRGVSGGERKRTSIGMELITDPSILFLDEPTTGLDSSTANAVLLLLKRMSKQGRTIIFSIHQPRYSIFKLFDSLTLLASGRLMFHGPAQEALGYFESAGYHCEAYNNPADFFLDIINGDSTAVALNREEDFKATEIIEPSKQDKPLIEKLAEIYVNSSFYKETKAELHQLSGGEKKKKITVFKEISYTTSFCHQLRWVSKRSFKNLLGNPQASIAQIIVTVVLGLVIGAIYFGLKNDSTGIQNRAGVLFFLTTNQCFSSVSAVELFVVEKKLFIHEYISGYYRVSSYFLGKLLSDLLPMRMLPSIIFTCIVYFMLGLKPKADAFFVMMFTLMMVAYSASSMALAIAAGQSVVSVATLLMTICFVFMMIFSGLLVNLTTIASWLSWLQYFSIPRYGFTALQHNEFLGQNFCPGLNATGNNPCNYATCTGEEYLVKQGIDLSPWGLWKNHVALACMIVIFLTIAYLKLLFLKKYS

| Binder | binding result [1] | stoichiometry N [2] |
| --- | --- | --- |
| Fab fragment of the ABCG2-specific monoclonal antibody 5D3 (Fab, V domains shown) VH: QVQLQESGPGLVKPSQSLSLTCTVTGFSITSDYAWNWIRQFPGKKLEWMGYINFDGGTTYNPSLRGRISITRDTSKNQFFLQLRSVTPEDTATYYCATFYGAKGTLDYWGQGTSVTVSS VL: DIVLTQSPSSFSVSLGDRVTISCKASGYILNRLAWYQQKPGNAPRLLISGATSLETGFPSRFSGTGSGKDYTLSISSLQTEDVGTYYCQQYWSTPWTFGGGTKLEIR | binds |  |
| Human ABCG2 (breast cancer resistance protein), wild type, N-terminal Flag tag, reconstituted in nanodiscs, Q9UNQ0 1-655 (natural protein) MSSSNVEVFIPVSQGNTNGFPATASNDLKAFTEGAVLSFHNICYRVKLKSGFLPCRKPVEKEILSNINGIMKPGLNAILGPTGGGKSSLLDVLAARKDPSGLSGDVLINGAPRPANFKCNSGYVVQDDVVMGTLTVRENLQFSAALRLATTMTNHEKNERINRVIQELGLDKVADSKVGTQFIRGVSGGERKRTSIGMELITDPSILFLDEPTTGLDSSTANAVLLLLKRMSKQGRTIIFSIHQPRYSIFKLFDSLTLLASGRLMFHGPAQEALGYFESAGYHCEAYNNPADFFLDIINGDSTAVALNREEDFKATEIIEPSKQDKPLIEKLAEIYVNSSFYKETKAELHQLSGGEKKKKITVFKEISYTTSFCHQLRWVSKRSFKNLLGNPQASIAQIIVTVVLGLVIGAIYFGLKNDSTGIQNRAGVLFFLTTNQCFSSVSAVELFVVEKKLFIHEYISGYYRVSSYFLGKLLSDLLPMRMLPSIIFTCIVYFMLGLKPKADAFFVMMFTLMMVAYSASSMALAIAAGQSVVSVATLLMTICFVFMMIFSGLLVNLTTIASWLSWLQYFSIPRYGFTALQHNEFLGQNFCPGLNATGNNPCNYATCTGEEYLVKQGIDLSPWGLWKNHVALACMIVIFLTIAYLKLLFLKKYS |  | 2 |

Source: doi:10.1101/2021.02.18.431786 (bioRxiv, 2021)
